± gives the standard deviation.
Assay: collision cross section of modified peptide (TIMS, N2, iRT-aligned); higher = larger / more extended gas-phase ion
Method in brief: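 Collision cross section values rest on the Mason-Schamp equation applied to calibrated, run-aligned mobility data from synthetic peptides. Mobility (1/K0) was calibrated with three reference ions and aligned per run to the median iRT peptide deviation, and 1–3 technical replicates of the most abundant feature per charge state were averaged. Data came from a timsTOF Pro/HT in dda-PASEF mode (nitrogen, ~2.4 mbar) after a 120-min nanoflow C18 gradient at 60 °C.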

[1] = charge state: 2, modification: Glutarylation
[2] = charge state: 3, modification: Glutarylation
[3] = charge state: 3, modification: Methyl (R)
[4] = charge state: 2, modification: Succinyl
[5] = charge state: 3, modification: Dimethyl (K)
[6] = charge state: 2, modification: Methyl (K)
[7] = charge state: 3, modification: Methyl (K)
[8] = charge state: 2, modification: Butyryl
[9] = charge state: 3, modification: Butyryl
[10] = charge state: 3, modification: Succinyl
[11] = charge state: 2, modification: Phospho (Y)
[12] = charge state: 2, modification: hydroxyisobutyryl
[13] = charge state: 3, modification: hydroxyisobutyryl

## GADFLVTEVENGGSLGSKK [_GADFLVTEVENGGSLGSK(Gluratylation)K_]
[1]
  collision cross section: 481.44 ± 2 Å²
[2]
  collision cross section: 556.42 Å²

## PLRAASPFR [_PLR(Methyl (R))AASPFR_]
Charge state: 2, modification: Methyl (R)
  collision cross section: 351.73 ± 0.9 Å²
[3]
  collision cross section: 447.48 ± 3.2 Å²

## GSLEKGSPEDK [_GSLEK(Succinyl)GSPEDK_]
[4]
  collision cross section: 366.43 ± 0.51 Å²

## TQDQISNIKYHEEFEK [_TQDQISNIK(Dimethyl (K))YHEEFEK_]
[5]
  collision cross section: 542.8 ± 0.41 Å²

## IQQELQTAKK [_IQQELQTAK(GlyGly (K))K_]
Charge state: 2, modification: GlyGly (K)
  collision cross section: 381.49 ± 0.89 Å²
Charge state: 3, modification: GlyGly (K)
  collision cross section: 434.95 ± 2 Å²

## AVAITQSPSSVR [_AVAIT(HexNAc (ST))QSPSSVR_]
Charge state: 2, modification: HexNAc (ST)
  collision cross section: 390.4 ± 0.13 Å²

## AGPNASIISLKSDK [_AGPNASIISLK(Dimethyl (K))SDK_]
Charge state: 2, modification: Dimethyl (K)
  collision cross section: 413.93 ± 1.1 Å²
[5]
  collision cross section: 484.65 ± 1.6 Å²

## VSPASSVDSNIPSSQGYKK [_VSPASSVDSNIPSSQGYK(Acetyl (K))K_]
Charge state: 2, modification: Acetyl (K)
  collision cross section: 458.38 ± 2.6 Å²
Charge state: 3, modification: Acetyl (K)
  collision cross section: 553.13 ± 0.49 Å²

## VDVEVPDVSLEGPEGKLK [_VDVEVPDVSLEGPEGK(Methyl (K))LK_]
[6]
  collision cross section: 462.48 ± 7.8 Å²
[7]
  collision cross section: 551.69 ± 1.3 Å²

## LQAAYAGDKADDIQK [_LQAAYAGDK(Gluratylation)ADDIQK_]
[1]
  collision cross section: 440.38 ± 0.95 Å²
[2]
  collision cross section: 496.91 ± 1 Å²

## VLTANSNPSSPSAAKR [_VLTANSNPSSPSAAK(Butyryl)R_]
[8]
  collision cross section: 432.84 ± 1.8 Å²
[9]
  collision cross section: 531.28 ± 2.7 Å²

## LTEKELAEAASK [_LTEK(Methyl (K))ELAEAASK_]
[6]
  collision cross section: 392.99 ± 1 Å²
[7]
  collision cross section: 445.12 ± 4.9 Å²

## VNVEAPDVNLEGLGGKLK [_VNVEAPDVNLEGLGGK(Succinyl)LK_]
[4]
  collision cross section: 466.17 ± 1.4 Å²
[10]
  collision cross section: 548.55 ± 1.1 Å²

## DLTTAGAVTQCYR [_DLTTAGAVTQCY(Phospho (Y))R_]
[11]
  collision cross section: 405.28 ± 0.061 Å²

## GPPGPPGRPGNSGIR [_GPPGPPGRP(Hydroxyproline)GNSGIR_]
Charge state: 3, modification: Hydroxyproline
  collision cross section: 429.49 ± 1.3 Å²

## TQAEGQGQGRGLGLVSAVR [_TQAEGQGQGR(Methyl (R))GLGLVSAVR_]
[3]
  collision cross section: 510.91 ± 2 Å²

## VGLQVVAVKAPGFGDNR [_VGLQVVAVK(Crotonyl)APGFGDNR_]
Charge state: 2, modification: Crotonyl
  collision cross section: 449.86 ± 0.94 Å²
Charge state: 3, modification: Crotonyl
  collision cross section: 499.08 ± 1.6 Å²

## VQGGALEDSQLVAGVAFKK [_VQGGALEDSQLVAGVAFK(hydroxyisobutyryl)K_]
[12]
  collision cross section: 481.48 Å²
[13]
  collision cross section: 565.17 ± 3.4 Å²

## DLYEPSHGAK [_DLY(Nitro (Y))EPSHGAK_]
Charge state: 2, modification: Nitro (Y)
  collision cross section: 364.04 ± 0.94 Å²
Charge state: 3, modification: Nitro (Y)
  collision cross section: 435.87 ± 1.2 Å²

## SNEEGSEEKGPEVR [_SNEEGSEEK(Butyryl)GPEVR_]
[8]
  collision cross section: 407.11 ± 0.23 Å²
[9]
  collision cross section: 490.17 Å²

## IVEKYGYTHLSAGELLR [_IVEK(Trimethyl (K))YGYTHLSAGELLR_]
Charge state: 3, modification: Trimethyl (K)
  collision cross section: 554.1 ± 0.025 Å²

## VFIGNLNTLVVKK [_VFIGNLNTLVVK(Gluratylation)K_]
[1]
  collision cross section: 424.62 ± 0.97 Å²
[2]
  collision cross section: 495.12 ± 1.7 Å²

## DLGKFQVATDALK [_DLGK(Gluratylation)FQVATDALK_]
[1]
  collision cross section: 414.3 ± 0.6 Å²

## DLEEAEEYK [_DLEEAEEY(Phospho (Y))K_]
[11]
  collision cross section: 369.49 ± 0.064 Å²

## VYIASSSGSTAIKK [_VYIASSSGSTAIK(Succinyl)K_]
[4]
  collision cross section: 413.08 ± 1.1 Å²
[10]
  collision cross section: 508.16 ± 1.6 Å²

## TLQKQSVVYGGK [_TLQK(Gluratylation)QSVVYGGK_]
[1]
  collision cross section: 399.42 ± 0.6 Å²

## GGPGSTLSFVGKR [_GGPGSTLSFVGK(Butyryl)R_]
[8]
  collision cross section: 388.34 ± 1.3 Å²
[9]
  collision cross section: 432.12 ± 3.2 Å²

## FGTINIVHPKLGSYTK [_FGTINIVHPK(hydroxyisobutyryl)LGSYTK_]
[12]
  collision cross section: 477.53 ± 1.6 Å²
[13]
  collision cross section: 560.61 ± 2.1 Å²

## AGQKLIDVNHYAK [_AGQK(Gluratylation)LIDVNHYAK_]
[1]
  collision cross section: 437.49 ± 0.96 Å²
[2]
  collision cross section: 489.6 ± 0.95 Å²

## ITLSKHQNVQLPR [_ITLSK(Succinyl)HQNVQLPR_]
[4]
  collision cross section: 418.56 ± 0.53 Å²
[10]
  collision cross section: 485.89 ± 2 Å²

## DFDTALKHYDK [_DFDTALK(Malonyl)HYDK_]
Charge state: 2, modification: Malonyl
  collision cross section: 405.79 ± 0.59 Å²

From the supplement of paper PMC10598134
